Source: the nanobody polyreactivity screen of Harvey et al. (2022)

Experiment: yeast display, Sf9 membrane polyspecificity reagent, FACS + sequencing; frameworks hold sequencing errors
In short: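 In a synthetic yeast display library (Saccharomyces cerevisiae BJ5465), nanobody expression was induced with galactose for 36–48 hours. FACS gates were set low and high (top ~1%) using anti-HA fluorescence for expression and streptavidin fluorescence for binding of the Sf9 membrane reagent. Each polyreactivity label is drawn from the gate of origin.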

Sequence	polyreactivity (PSR sort gate)
QVQLVESGGGLVQAGGSLRLSCAASGRIFDGNTMGWYRQAPGKERELVAAISGGGSTDYADSVKGRFTISRDNAKNTVYLQMNSLKPEDTAVYYCAATTGPVPLKGDYWGQGTQVTVSS	low polyreactivity
QVQLVESGGGLVQAGGSLRLSCAASGRIFDGYDMGGYRQAPGQEREWVAAITSVGSTNYADSVKGRFTISRDNAKNTVYLQMNSLKPDDTAVYYCAAVLYVFYDDYGYWEYFSQYDYWGQGTQVTVSS	low polyreactivity
QVQLVESGGGLVQAGGSLRLSCAASGRIFDKYTMGWYRQAPGKERELVATMTRGGVSTYYADSVKGRFTISRDNAKNTVYLQMNSLKPEDTAVYYCNAVWRLRVRYGYWGQGTHVTVSS	high polyreactivity
QVQLVESGGGLVQAGGSLRLSCAASGRIFDKYTMGWYRQAPWKERELVPAISKSGSGTFYADSVKGRFTISRDNAKNTVYLQMNSLKPEDTAVYYCARVYTVGSGRSWRLDYWGQGTQVTVSS	high polyreactivity
QVQLVESGGGLVQAGGSLRLSCAASGRIFDLNAMGWYRPAPGKERELVAAITNTGSTNYADSVKGRFTISRDNAKNTVYLQMNSLKPEDTAVYYCARTYWLRYYGYRDDEYDYWGQGTQVTVSS	low polyreactivity
QVQLVESGGGLVQAGGSLRLSCAASGRIFDLNAMGWYRQAPGKERELVAAITFSGGDTYADSVKGRFTISRDNAKNTVYLEMYSLKPEDTAVYYCAKDHYGDDTYGTPYDYDYWGQGTQVTVSS	low polyreactivity
QVQLVESGGGLVQAGGSLRLSCAASGRIFDLNAMGWYRQAPGKERELVADINSGGSTYYADSVKGRFTISRDNAKNTVYLQMNSLKPEDTAVYYCAVRRNQHVVQMYYWGQGTQVTVSS	low polyreactivity
QVQLVESGGGLVQAGGSLRLSCAASGRIFDLNVMGWYRQAPGKERELVAAIRSGGRTNYADSVKGRFTISRDNAKNTVYLQMNSLKPEDTAVYYCNVRRGYWHPRYGWANYDYWGQGTQVTVSS	high polyreactivity
QVQLVESGGGLVQAGGSLRLSCAASGRIFDLYAMGWYRQAPGKERELVATISGSGGSTYYADSVKGRFTISRDNAKNTVYLQMNSLKPEDTAVFYCAAVSVSSWYDYWGLGTQVTVSS	low polyreactivity
QVQLVESGGGLVQAGGSLRLSCAASGRIFDLYTMGWYRQAPGKERELVAAIRWSDGSTYYADSVKGRFTISRDNAKNTVYLQMNSLKPEDTAVYYCAADSRTSYYNDDYDYWGQGTQVTVSS	low polyreactivity
QVQLVESGGGLVQAGGSLRLSCAASGRIFDLYTMGWYRQAPGKERELVAAIRWSDGSTYYADSVKGRFTISRDNAKNTVYLQMNSLKPEDTAVYYCNRDPPRVLWYYLLSDSKLDSWGQGTQVTVSS	low polyreactivity
QVQLVESGGGLVQAGGSLRLSCAASGRIFDNNAMGWYRQAPGKERELVAAIDWRGGSTDYADSVKGRFTISRDNAKNNVYLHMNSLKQEDTAVYYCVAGHVRYWHGYSYDYWGQGTQVTVSS	low polyreactivity
QVQLVESGGGLVQAGGSLRLSCAASGRIFDPYAMGWYRQAPGKERELVASISWSGGRTYYADSVKGRFTISRDNAKNTVYLQMNSLKPEDTAVYYCARDYGQYGWYRYGRTYDHWGQGTQVTVSS	high polyreactivity
QVQLVESGGGLVQAGGSLRLSCAASGRIFDQYALGWYRQAPRKESELVAFINRGGSTNYADSVKGRFTISRDNAKNTVYLQMNSLKPEDTEVYYCAADGDYYVESQTGHTYYYWGQGTQVTVSS	low polyreactivity
QVQLVESGGGLVQAGGSLRLSCAASGRIFDQYTMGWYRQAPGKERELVAAIRWSDGSTYYADSVKGRFTISRDNAKNTVYLQMNSLKPEDTAVYYCAADTRTSYYNDDYDYWGQGTQVTVSS	low polyreactivity
QVQLVESGGGLVQAGGSLRLSCAASGRIFDRNAMGWYRQAPGKERELVAAISSRGTSTYYADSVKGRFTISRDNAKNTVYLQMNSLKPEDTAVYYCAARPRYASDEFGYWGQGTQVTVSS	low polyreactivity
QVQLVESGGGLVQAGGSLRLSCAASGRIFDRNAMGWYRQAPGKERELVARIDPGDDTNYADSVKGRFTISRDNAKNTVYLQMNSLKAEDTAVYYCATDPDYVLYRTAYYEYDYWGQGTQVTVSS	low polyreactivity
